Laboratory results published in article PMC3572039.

Biological target: T1, MBP-Δ116 (truncated XydR response regulator) del1-116 (Clostridium cellulolyticum H10 (ATCC 35319/DSM 5812)) (UniProt B8I0K9)
T1 sequence: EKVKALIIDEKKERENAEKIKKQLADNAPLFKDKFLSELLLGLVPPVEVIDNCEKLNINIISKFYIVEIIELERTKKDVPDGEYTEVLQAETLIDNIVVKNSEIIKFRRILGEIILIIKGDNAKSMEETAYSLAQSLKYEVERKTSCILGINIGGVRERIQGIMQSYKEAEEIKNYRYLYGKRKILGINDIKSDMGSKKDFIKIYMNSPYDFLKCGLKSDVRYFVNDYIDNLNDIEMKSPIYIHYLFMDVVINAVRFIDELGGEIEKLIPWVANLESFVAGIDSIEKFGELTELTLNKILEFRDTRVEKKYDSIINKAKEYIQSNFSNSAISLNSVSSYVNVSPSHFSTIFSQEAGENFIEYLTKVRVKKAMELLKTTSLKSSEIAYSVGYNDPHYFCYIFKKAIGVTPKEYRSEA
Test: EMSA
Conditions: 10 mM Tris pH 7.5, 150 mM KCl, 1 mM DTT, 30 ng/uL salmon sperm DNA, 0.1 ug/uL BSA, 0.05% NP-40, 2.5% glycerol, 20 C, 20 min; 20 fmol probe; 5% native PAGE

Row | Sequence | binding
1 | CCTTCTTAATCAGTTTCTAATTGCCAAAGAATAAGAGTAAAATGATTAGTAAATCTATATTCATTATAGAATGTAAACTGTTTCCAGCTCAATATAAATCCTTTTGACTTTTGTATATTAATTTTGTAAAATATCATTTTCAGTGTATTGGAGCAACATAAAAAAAGCAGCTGTAGAAAATCCAGCTGCTTTATACTTGCTATTTGTACAATTTTAGAATTACTTGTTAATACCTTATTCCGCAGC (double strand) [R6 (upstream Ccel_1656)] | binds
2 | GTATATAAGGTATTGACTTTCTTTGGCAGATGTAAGAATAGGAGTAAAATGAAAAGAACGATTAGTACATATTAACTATGTTAAAAATATTATAGAATGTAAATGGTTTCCATTTCAATATAAATCTTTTTGGTATTGGTATAAATTTTTGAATTCATTTTATCATATTTTGAAAAATTAGTAAATTATTTATTTTATTTTACACTTTTGTATATATTTTTTTAAATTTGTTAAGATATATTTTGCTATGCTTCACTCCTATACTCCTTTGG (double strand) [R3 (upstream Ccel_1229)] | binds
